# Measurements: IntAct's records for PubMed 22307056
# Molecular target: mk03_mouse Mapk3 (UniProt Q63844)
# Sequence (Q63844 whole entry): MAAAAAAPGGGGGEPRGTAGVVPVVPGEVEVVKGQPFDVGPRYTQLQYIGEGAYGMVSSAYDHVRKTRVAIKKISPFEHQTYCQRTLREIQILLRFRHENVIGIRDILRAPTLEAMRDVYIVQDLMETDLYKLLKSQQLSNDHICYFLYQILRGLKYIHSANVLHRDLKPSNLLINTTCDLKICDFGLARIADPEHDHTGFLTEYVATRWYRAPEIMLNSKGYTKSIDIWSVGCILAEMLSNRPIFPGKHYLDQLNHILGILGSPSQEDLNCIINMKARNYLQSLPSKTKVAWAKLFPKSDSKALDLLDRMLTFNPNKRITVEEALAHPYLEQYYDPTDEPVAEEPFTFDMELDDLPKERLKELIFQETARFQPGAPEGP
# Krueppel-like factor 4 (Mus musculus), Q60793 L89A;R91A;R92A;L101A;L103A, sequence (Q60793 whole entry L89A/R91A/R92A/L101A/L103A): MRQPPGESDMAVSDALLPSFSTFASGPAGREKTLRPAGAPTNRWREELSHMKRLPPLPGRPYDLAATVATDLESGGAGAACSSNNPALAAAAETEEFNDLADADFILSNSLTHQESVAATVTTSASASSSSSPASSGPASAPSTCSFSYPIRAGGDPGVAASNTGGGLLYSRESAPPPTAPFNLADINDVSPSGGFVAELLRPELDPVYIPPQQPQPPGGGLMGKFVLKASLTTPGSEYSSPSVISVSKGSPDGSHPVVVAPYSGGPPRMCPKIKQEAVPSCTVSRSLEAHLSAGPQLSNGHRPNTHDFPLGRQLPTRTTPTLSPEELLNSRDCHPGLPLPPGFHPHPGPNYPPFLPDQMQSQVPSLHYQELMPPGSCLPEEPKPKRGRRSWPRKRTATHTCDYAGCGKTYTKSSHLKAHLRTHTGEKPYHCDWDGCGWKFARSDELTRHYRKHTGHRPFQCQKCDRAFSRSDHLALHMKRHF
# Krueppel-like factor 4 (Mus musculus), Q60793 L89A;R91A;R92A, sequence (Q60793 whole entry L89A/R91A/R92A): as the sequence (Q60793 whole entry L89A/R91A/R92A/L101A/L103A) above, with A101L, A103L counted along it
# Krueppel-like factor 4 (Mus musculus), Q60793 S132A, sequence (Q60793 whole entry S132A): as the sequence (Q60793 whole entry L89A/R91A/R92A/L101A/L103A) above, with A89L, A91R, A92R, A101L, A103L, S132A counted along it
# Krueppel-like factor 4 (Mus musculus), Q60793 S140A, sequence (Q60793 whole entry S140A): as the sequence (Q60793 whole entry L89A/R91A/R92A/L101A/L103A) above, with A89L, A91R, A92R, A101L, A103L, S140A counted along it
# Krueppel-like factor 4 (Mus musculus), Q60793 L101A;L103A, sequence (Q60793 whole entry L101A/L103A): as the sequence (Q60793 whole entry L89A/R91A/R92A/L101A/L103A) above, with A89L, A91R, A92R counted along it
# Krueppel-like factor 4 (Mus musculus), Q60793 S136A, sequence (Q60793 whole entry S136A): as the sequence (Q60793 whole entry L89A/R91A/R92A/L101A/L103A) above, with A89L, A91R, A92R, A101L, A103L, S136A counted along it
row,Substance,effect of a mutation on the interaction
1,"Krueppel-like factor 4 (Mus musculus), Q60793 L89A;R91A;R92A;L101A;L103A",disrupting interaction strength
2,"Krueppel-like factor 4 (Mus musculus), Q60793 L101A;L103A",decreasing interaction strength
3,"Krueppel-like factor 4 (Mus musculus), Q60793 L89A;R91A;R92A",disrupting interaction strength

# Molecular target: fbw1b_human FBXW11 (UniProt Q9UKB1)
# Sequence (Q9UKB1 whole entry): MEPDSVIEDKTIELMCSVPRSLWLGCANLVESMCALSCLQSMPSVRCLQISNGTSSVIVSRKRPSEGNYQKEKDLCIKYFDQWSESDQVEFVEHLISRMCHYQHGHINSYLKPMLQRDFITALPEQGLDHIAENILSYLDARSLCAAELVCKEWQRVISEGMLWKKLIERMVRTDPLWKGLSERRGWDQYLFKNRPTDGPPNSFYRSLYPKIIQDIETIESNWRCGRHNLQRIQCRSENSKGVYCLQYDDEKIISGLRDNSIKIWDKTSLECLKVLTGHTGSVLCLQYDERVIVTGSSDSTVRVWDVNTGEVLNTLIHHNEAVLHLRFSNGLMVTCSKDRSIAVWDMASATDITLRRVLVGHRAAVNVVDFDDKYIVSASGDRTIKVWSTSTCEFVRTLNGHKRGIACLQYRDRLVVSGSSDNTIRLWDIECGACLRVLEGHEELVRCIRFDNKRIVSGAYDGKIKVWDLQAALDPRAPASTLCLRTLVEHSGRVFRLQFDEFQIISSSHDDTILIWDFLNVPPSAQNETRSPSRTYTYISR
row,Substance,effect of a mutation on the interaction
1,"Krueppel-like factor 4 (Mus musculus), Q60793 S136A",decreasing interaction strength
2,"Krueppel-like factor 4 (Mus musculus), Q60793 S132A",decreasing interaction strength
3,"Krueppel-like factor 4 (Mus musculus), Q60793 S140A",decreasing interaction strength
